Patent US20220089698A1 (published 2022)

Assays:
HIV gp120 Bal = HIV gp120 Bal (HIV); test: single-point ELISA; note: test concentration or dose not given here
HIV gp120 CAAN = HIV gp120 CAAN (HIV); test: single-point ELISA; note: test concentration or dose not given here

B1: 1.15.1-1 (antibody, human IgG1, kappa)
heavy: QVQLLQSGAAVTKPGASVRVSCEASGYNIRDYFIHWWRQAPGQGLQWVGWINPKWGQPNNPRQFQGRVSLTRHASWDFDTFSFYMDLKALRSDDTAVYFCARQRSDYWDFDVWGSGTQVTVSSASTKGPSVFPLAPSSKSTSGGTAALGCLVKDYFPEPVTVSWNSGALTSGVHTFPAVLQSSGLYSLSSVVTVPSSSLGTQTYICNVNHKPSNTKVDKKVEPKSCDKTHTCPPCPAPELLAGPDVFLFPPKPKDTLMISRTPEVTCVVVDVSHEDPEVKFNWYVDGVEVHNAKTKPREEQYNSTYRVVSVLTVLHQDWLNGKEYKCKVSNKALPLPEEKTISKAKGQPREPQVYTLPPSREEMTKNQVSLTCLVKGFYPSDIAVEWESNGQPENNYKTTPPVLDSDGSFFLYSKLTVDKSRWQQGNVFSCSVLHEALHSHYTQKSLSLSPGK
light: DIQMTQSPSSLSASVGDTVTITCQANGYLNWYQQRRGKAPKLLIYDGSKLERGVPSRFSGRRWGQEYNLTINNLQPEDIATYFCQVYEFVVPGTRLDLKRTVAAPSVFIFPPSDEQLKSGTASVVCLLNNFYPREAKVQWKVDNALQSGNSQESVTEQDSKDSTYSLSSTLTLSKADYEKHKVYACEVTHQGLSSPVTKSFNRGEC
HIV gp120 Bal
  ELISA (A450): 0.87 A450
HIV gp120 CAAN
  ELISA (A450): 1.38 A450

B2: 1.17.1-1 (antibody, human IgG1, kappa)
heavy: QVQLLQSGAAVTKPGASVRVSCEASGYNIRDYFIHWWRQAPGQGLQWVGWINPKAGQPNNPRQFQGRVSLTRHASWDFDTFSFYMDLKALRSDDTAVYFCARQRSDYWDFDVWGSGTQVTVSSASTKGPSVFPLAPSSKSTSGGTAALGCLVKDYFPEPVTVSWNSGALTSGVHTFPAVLQSSGLYSLSSVVTVPSSSLGTQTYICNVNHKPSNTKVDKKVEPKSCDKTHTCPPCPAPELLAGPDVFLFPPKPKDTLMISRTPEVTCVVVDVSHEDPEVKFNWYVDGVEVHNAKTKPREEQYNSTYRVVSVLTVLHQDWLNGKEYKCKVSNKALPLPEEKTISKAKGQPREPQVYTLPPSREEMTKNQVSLTCLVKGFYPSDIAVEWESNGQPENNYKTTPPVLDSDGSFFLYSKLTVDKSRWQQGNVFSCSVLHEALHSHYTQKSLSLSPGK
light: DIQMTQSPSSLSASVGDTVTITCQANGYLNWYQQRRGKAPKLLIYDGSKLERGVPSRFSGRRWGQEYNLTINNLQPEDIATYFCQVYEFVVPGTRLDLKRTVAAPSVFIFPPSDEQLKSGTASVVCLLNNFYPREAKVQWKVDNALQSGNSQESVTEQDSKDSTYSLSSTLTLSKADYEKHKVYACEVTHQGLSSPVTKSFNRGEC
HIV gp120 Bal
  ELISA (A450): 0.84 A450
HIV gp120 CAAN
  ELISA (A450): 0.7 A450

B3: 1.20.1-1 (antibody, human IgG1, kappa)
heavy: QVQLLQSGAAVTKPGASVRVSCEASGYNIRDYFIHWWRQAPGQGLQWVGWINPKTGQPNNPRQFQGRVTMTRHASWDFDTFSFYMDLKALRSDDTAVYFCARQRSDYWDFDVWGSGTQVTVSSASTKGPSVFPLAPSSKSTSGGTAALGCLVKDYFPEPVTVSWNSGALTSGVHTFPAVLQSSGLYSLSSVVTVPSSSLGTQTYICNVNHKPSNTKVDKKVEPKSCDKTHTCPPCPAPELLAGPDVFLFPPKPKDTLMISRTPEVTCVVVDVSHEDPEVKFNWYVDGVEVHNAKTKPREEQYNSTYRVVSVLTVLHQDWLNGKEYKCKVSNKALPLPEEKTISKAKGQPREPQVYTLPPSREEMTKNQVSLTCLVKGFYPSDIAVEWESNGQPENNYKTTPPVLDSDGSFFLYSKLTVDKSRWQQGNVFSCSVLHEALHSHYTQKSLSLSPGK
light: DIQMTQSPSSLSASVGDTVTITCQANGYLNWYQQRRGKAPKLLIYDGSKLERGVPSRFSGRRWGQEYNLTINNLQPEDIATYFCQVYEFVVPGTRLDLKRTVAAPSVFIFPPSDEQLKSGTASVVCLLNNFYPREAKVQWKVDNALQSGNSQESVTEQDSKDSTYSLSSTLTLSKADYEKHKVYACEVTHQGLSSPVTKSFNRGEC
HIV gp120 Bal
  ELISA (A450): 0.89 A450
HIV gp120 CAAN
  ELISA (A450): 0.8 A450

B4: 1.18.1-1 (antibody, human IgG1, kappa)
heavy: QVQLLQSGAAVTKPGASVRVSCEASGYNIRDYFIHWWRQAPGQGLQWVGWINPKHGQPNNPRQFQGRVSLTRHASWDFDTFSFYMDLKALRSDDTAVYFCARQRSDYWDFDVWGSGTQVTVSSASTKGPSVFPLAPSSKSTSGGTAALGCLVKDYFPEPVTVSWNSGALTSGVHTFPAVLQSSGLYSLSSVVTVPSSSLGTQTYICNVNHKPSNTKVDKKVEPKSCDKTHTCPPCPAPELLAGPDVFLFPPKPKDTLMISRTPEVTCVVVDVSHEDPEVKFNWYVDGVEVHNAKTKPREEQYNSTYRVVSVLTVLHQDWLNGKEYKCKVSNKALPLPEEKTISKAKGQPREPQVYTLPPSREEMTKNQVSLTCLVKGFYPSDIAVEWESNGQPENNYKTTPPVLDSDGSFFLYSKLTVDKSRWQQGNVFSCSVLHEALHSHYTQKSLSLSPGK
light: DIQMTQSPSSLSASVGDTVTITCQANGYLNWYQQRRGKAPKLLIYDGSKLERGVPSRFSGRRWGQEYNLTINNLQPEDIATYFCQVYEFVVPGTRLDLKRTVAAPSVFIFPPSDEQLKSGTASVVCLLNNFYPREAKVQWKVDNALQSGNSQESVTEQDSKDSTYSLSSTLTLSKADYEKHKVYACEVTHQGLSSPVTKSFNRGEC
HIV gp120 Bal
  ELISA (A450): 0.97 A450
HIV gp120 CAAN
  ELISA (A450): 1.18 A450

B5: 1.16.1-1 (antibody, human IgG1, kappa)
heavy: QVQLLQSGAAVTKPGASVRVSCEASGYNIRDYFIHWWRQAPGQGLQWVGWINPKGGQPNNPRQFQGRVSLTRHASWDFDTFSFYMDLKALRSDDTAVYFCARQRSDYWDFDVWGSGTQVTVSSASTKGPSVFPLAPSSKSTSGGTAALGCLVKDYFPEPVTVSWNSGALTSGVHTFPAVLQSSGLYSLSSVVTVPSSSLGTQTYICNVNHKPSNTKVDKKVEPKSCDKTHTCPPCPAPELLAGPDVFLFPPKPKDTLMISRTPEVTCVVVDVSHEDPEVKFNWYVDGVEVHNAKTKPREEQYNSTYRVVSVLTVLHQDWLNGKEYKCKVSNKALPLPEEKTISKAKGQPREPQVYTLPPSREEMTKNQVSLTCLVKGFYPSDIAVEWESNGQPENNYKTTPPVLDSDGSFFLYSKLTVDKSRWQQGNVFSCSVLHEALHSHYTQKSLSLSPGK
light: DIQMTQSPSSLSASVGDTVTITCQANGYLNWYQQRRGKAPKLLIYDGSKLERGVPSRFSGRRWGQEYNLTINNLQPEDIATYFCQVYEFVVPGTRLDLKRTVAAPSVFIFPPSDEQLKSGTASVVCLLNNFYPREAKVQWKVDNALQSGNSQESVTEQDSKDSTYSLSSTLTLSKADYEKHKVYACEVTHQGLSSPVTKSFNRGEC
HIV gp120 Bal
  ELISA (A450): 0.92 A450
HIV gp120 CAAN
  ELISA (A450): 0.87 A450

B6: 1.19.1-1 (antibody, human IgG1, kappa)
heavy: QVQLLQSGAAVTKPGASVRVSCEASGYNIRDYFIHWWRQAPGQGLQWVGWINPKTGQPNNPRQFQGRVTLTRHASWDFDTFSFYMDLKALRSDDTAVYFCARQRSDYWDFDVWGSGTQVTVSSASTKGPSVFPLAPSSKSTSGGTAALGCLVKDYFPEPVTVSWNSGALTSGVHTFPAVLQSSGLYSLSSVVTVPSSSLGTQTYICNVNHKPSNTKVDKKVEPKSCDKTHTCPPCPAPELLAGPDVFLFPPKPKDTLMISRTPEVTCVVVDVSHEDPEVKFNWYVDGVEVHNAKTKPREEQYNSTYRVVSVLTVLHQDWLNGKEYKCKVSNKALPLPEEKTISKAKGQPREPQVYTLPPSREEMTKNQVSLTCLVKGFYPSDIAVEWESNGQPENNYKTTPPVLDSDGSFFLYSKLTVDKSRWQQGNVFSCSVLHEALHSHYTQKSLSLSPGK
light: DIQMTQSPSSLSASVGDTVTITCQANGYLNWYQQRRGKAPKLLIYDGSKLERGVPSRFSGRRWGQEYNLTINNLQPEDIATYFCQVYEFVVPGTRLDLKRTVAAPSVFIFPPSDEQLKSGTASVVCLLNNFYPREAKVQWKVDNALQSGNSQESVTEQDSKDSTYSLSSTLTLSKADYEKHKVYACEVTHQGLSSPVTKSFNRGEC
HIV gp120 Bal
  ELISA (A450): 0.85 A450
HIV gp120 CAAN
  ELISA (A450): 0.93 A450
